Laboratory results taken from the supplement of paper PMC10567573.

B1: SAT2 (parent)
chain: LTEAEGWHFFCFQGEATRKLAGK

Variants of: B1
Experiment: protein stability index of a GFP-peptide fusion (GPS, HEK-293T) (PSI 1-6); higher = more stable
Details: c terminus: native
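Note: lentivirally expressed fusions sorted by FACS into six bins by GFP to DsRed ratio, PSI derived from sequencing read proportions per bin multiplied by bin number.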

Protein stability index: each site, then its substitutions
L1: I 1.79 | T 2.33 | G 4.09 | Q 3.47 | E 3.73 | R 2.09
A16: R 1.98 | G 2.38 | W 1.08 | T 1.68 | N 2.67 | M 2.1 | E 2.79 | L 3.02
Q13: M 1.07 | P 2.94 | G 1.61 | N 2.72 | T 1.35 | R 1.93 | H 1.56 | E 2.89
A4: R 2.17 | M 1.66 | V 1.64 | G 2.68 | S 2.66 | E 3.14 | H 3 | T 2.9 | N 2.87 | Y 1.56
F12: R 2.87 | L 2.48 | C 3.39 | D 4.53 | W 2.35 | K 4.01 | G 3.42
F10: R 3.28 | L 2.68 | K 3.77 | T 3.99 | Q 3.61
E5: I 3.25 | C 1.26 | K 1.18 | T 1.94 | L 1.29
F9: M 2.51 | Y 2.69 | R 3.77 | N 3.52 | Q 3.63 | D 4.19 | T 3.64 | P 4.17 | I 2.23
A21: F 1.77 | H 3.24 | D 2.73 | K 2.5 | R 1.71 | C 2.57 | I 3.52
W7: P 4.43 | L 3.12 | S 4.22 | N 4.35 | C 3.87 | I 2.63 | K 3.88 | M 3.5
T2: P 2.12
L20: N 3.41 | T 3.52 | E 3.6 | K 3.3 | D 2.99 | R 3.66 | P 3.22 | I 2.34
H8: A 2.21 | N 3.91 | T 3.27 | E 3.41
R18: N 2.59 | V 1.5 | T 2.03 | F 1.5 | Y 2.21 | I 3.84 | M 1.71 | H 2.3 | L 1.53 | C 1.92
K19: I 2.39 | H 2.58 | L 2.93 | A 2.35 | Y 2.11 | F 1.94 | G 2.25 | T 2.05
C11: N 3.04 | I 1.66 | M 2.6 | P 3.7 | E 3.27 | T 2.94 | K 3.5 | W 1.57
E3: H 1.67 | C 1.89 | T 2.11 | S 1.75 | A 1.79
G14: I 4.25 | H 1.9 | S 1.73 | Q 1.96 | Y 3.67 | K 2.23 | M 1.76 | W 2.8 | A 2.48
E15: K 3.63 | P 1.97 | H 2.13 | W 1.77
K23: H 1.49 | T 2.33 | I 2.17 | S 2 | P 2.41 | Q 2.81 | N 2.85
G22: P 2.47 | N 2.67 | T 2.27 | R 3.52 | F 1.8 | E 2.54 | M 1.6 | V 3.23 | Y 2.39 | S 1.8 | W 2.17
T17: H 1.77 | F 1.61 | L 2.04 | S 1.48 | I 1.35 | N 2.53 | P 3.05 | D 2.79 | C 1.8 | V 2.21 | M 2.46
G6: C 1.5 | K 2.15 | S 2.27 | T 2.03 | Q 2.6 | R 3.03 | V 2.15 | I 2.49
